The test system of the series is Tn5 transposase hyperactive mutant EK54/MA56/LP372 (EK45/MA56/LP372 [sic] in example) E54K,M56A,L372P (Escherichia coli (transposon Tn5)?). In words: cell_activity. As to conditions: 1 µl electroporated into E. coli MG1655, KanR colonies.

Activity data for three substances are collected here from US6159736.

Under “with Mg2+”, “linearized plasmid with mosaic-end kanamycin transposon and donor backbone” displayed an activity of 6900 CFU.
“released transposable element (PvuII cut) with kanamycin resistance cassette flanked by inverted mosaic ends” displayed an activity (no Mg2+, synaptic complex formed in vitro, with Mg2+ 3.9e3, 10 µl dialyzed without Mg2+ 5.5e5) of 53000 CFU.
“supercoiled plasmid with mosaic-end kanamycin transposon and donor backbone” returned an activity (with Mg2+, none without transposase) of 1600 CFU.
